According to publication PMC10495444:

What was measured:
[1] = target: mXkr4ΔC Q332E (aXkr4), constitutively active mutant, fused with monomeric EGFP (mouse); test: SEC + native gel or EMSA; whole lysate of transfected HEK293T cells in LMNG/GDN 1:1 loaded on Superdex Increase 200 10/300 GL (10 mM HEPES-NaOH pH 7.5, 150 mM NaCl, 0.01% LMNG/GDN, 10% glycerol, 1 mM CaCl2 or 0.5 mM EGTA); dimer fraction collected by EGFP fluorescence; then BN-PAGE with anti-V5 blot after 1 h at 4, 16, 25 or 37 °C
[2] = target: mouse Xkr4 C-terminal cleaved form (mXkr4ΔC) fused with monomeric EGFP (mouse); test: as above

Substance	stoichiometry N [1]	stoichiometry N [2]
mXkr4ΔC Q332E (aXkr4), constitutively active mutant, fused with monomeric EGFP (domain or fragment)	2	
mouse Xkr4 C-terminal cleaved form (mXkr4ΔC) fused with monomeric EGFP (domain or fragment)		2
